Results taken from article PMC11826918, “Generation of antagonistic biparatopic anti-CD30 antibody from an agonistic antibody by precise epitope determination and utilization of structural characteristics of CD30 molecule” (Antibody Therapeutics, 2025).

What was measured:
Experiment in all cases: SPR; Biacore T200; antibody captured on anti-human Fc (CM5 chip); CD30-MBP flowed at 0, 2, 20 nM (T426: 0, 20, 200 nM), contact 90 s, dissociation 300 s; fit to a 1:1 binding mode; rough-level analysis
Conditions in all cases: both partners purified
BpT25-427 = biological target: T1, BpT25-427
T1 construct: T25 Fv, N side; T427 Fv, C side; one Fab of each Fv; knobs-into-holes Fc; source: Expi293 fragments joined by intein-mediated protein trans-splicing, purified (Superdex 200 Increase); copies: + + +
T1 sequence (chain, as listed by the source, chain 1 of 4): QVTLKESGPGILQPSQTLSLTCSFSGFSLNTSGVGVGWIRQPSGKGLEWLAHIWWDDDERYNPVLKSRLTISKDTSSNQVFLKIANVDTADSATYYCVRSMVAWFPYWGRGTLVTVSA
T1 sequence (chain, as listed by the source, chain 2 of 4): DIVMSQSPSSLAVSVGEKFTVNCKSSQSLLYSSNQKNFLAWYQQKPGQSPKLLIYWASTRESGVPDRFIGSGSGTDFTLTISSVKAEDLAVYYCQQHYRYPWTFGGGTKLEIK
T1 sequence (chain, as listed by the source, chain 3 of 4): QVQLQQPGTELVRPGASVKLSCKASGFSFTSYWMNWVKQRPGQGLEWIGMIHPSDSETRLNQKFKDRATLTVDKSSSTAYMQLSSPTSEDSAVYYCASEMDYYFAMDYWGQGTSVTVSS
T1 sequence (chain, as listed by the source, chain 4 of 4): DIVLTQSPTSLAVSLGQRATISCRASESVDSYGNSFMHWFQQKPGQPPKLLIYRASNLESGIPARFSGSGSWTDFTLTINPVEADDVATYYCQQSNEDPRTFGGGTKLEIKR

BpT405-6 = biological target: T2, BpT405-6
T2 construct: T405 Fv, N side; T6 Fv, C side; one Fab of each Fv; knobs-into-holes Fc; source: Expi293 fragments joined by intein-mediated protein trans-splicing, purified (Superdex 200 Increase); copies: + + +

BpT104-6 = biological target: T3, BpT104-6
T3 construct: T104 Fv, N side; T6 Fv, C side; one Fab of each Fv; knobs-into-holes Fc; source: Expi293 fragments joined by intein-mediated protein trans-splicing, purified (Superdex 200 Increase); copies: + + +
T3 sequence (chain, as listed by the source, chain 1 of 4): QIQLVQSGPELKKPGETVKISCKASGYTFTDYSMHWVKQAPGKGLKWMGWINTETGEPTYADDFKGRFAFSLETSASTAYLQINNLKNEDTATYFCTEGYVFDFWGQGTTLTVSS
T3 sequence (chain, as listed by the source, chain 2 of 4): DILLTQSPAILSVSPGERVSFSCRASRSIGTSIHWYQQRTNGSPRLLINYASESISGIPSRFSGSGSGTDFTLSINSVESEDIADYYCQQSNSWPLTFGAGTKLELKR
T3 sequence (chain, as listed by the source, chain 3 of 4): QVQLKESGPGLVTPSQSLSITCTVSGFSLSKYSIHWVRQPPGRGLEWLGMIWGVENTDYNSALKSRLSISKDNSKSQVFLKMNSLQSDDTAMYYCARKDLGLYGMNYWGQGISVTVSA
T3 sequence (chain, as listed by the source, chain 4 of 4): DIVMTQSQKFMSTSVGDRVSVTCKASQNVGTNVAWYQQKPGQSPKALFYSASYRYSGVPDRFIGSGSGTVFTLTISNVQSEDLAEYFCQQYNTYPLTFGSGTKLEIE

BpT427-6 = biological target: T4, BpT427-6
T4 construct: T427 Fv, N side; T6 Fv, C side; one Fab of each Fv; knobs-into-holes Fc; source: Expi293 fragments joined by intein-mediated protein trans-splicing, purified (Superdex 200 Increase); copies: + + +

BpT10-405 = biological target: T5, BpT10-405
T5 construct: AC10 Fv, N side; T405 Fv, C side; one Fab of each Fv; knobs-into-holes Fc; source: Expi293 fragments joined by intein-mediated protein trans-splicing, purified (Superdex 200 Increase); copies: + + +

BpT107-427 = biological target: T6, BpT107-427
T6 construct: T107 Fv, N side; T427 Fv, C side; one Fab of each Fv; knobs-into-holes Fc; source: Expi293 fragments joined by intein-mediated protein trans-splicing, purified (Superdex 200 Increase); copies: + + +
T6 sequence (chain, as listed by the source, chain 1 of 4): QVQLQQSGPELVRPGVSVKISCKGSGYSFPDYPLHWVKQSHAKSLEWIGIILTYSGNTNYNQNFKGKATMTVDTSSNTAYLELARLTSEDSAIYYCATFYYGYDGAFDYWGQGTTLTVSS
T6 sequence (chain, as listed by the source, chain 2 of 4): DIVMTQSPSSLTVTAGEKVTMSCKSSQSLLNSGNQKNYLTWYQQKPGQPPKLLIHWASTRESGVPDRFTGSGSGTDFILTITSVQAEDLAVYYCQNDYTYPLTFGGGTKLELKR

BpT105-405 = biological target: T7, BpT105-405
T7 construct: T105 Fv, N side; T405 Fv, C side; one Fab of each Fv; knobs-into-holes Fc; source: Expi293 fragments joined by intein-mediated protein trans-splicing, purified (Superdex 200 Increase); copies: + + +

BpT104-405 = biological target: T8, BpT104-405
T8 construct: T104 Fv, N side; T405 Fv, C side; one Fab of each Fv; knobs-into-holes Fc; source: Expi293 fragments joined by intein-mediated protein trans-splicing, purified (Superdex 200 Increase); copies: + + +

BpT107-6 = biological target: T9, BpT107-6
T9 construct: T107 Fv, N side; T6 Fv, C side; one Fab of each Fv; knobs-into-holes Fc; source: Expi293 fragments joined by intein-mediated protein trans-splicing, purified (Superdex 200 Increase); copies: + + +

B1: Maltose-binding protein-fused CD30 (domain or fragment)
chain: FPQDRPFEDTCHGNPSHYYDKAVRRCCYRCPMGLFPTQQCPQRPTDCRKQCEPDYYLDEADRCTACVTCSRDDLVEKTPCAWNSSRVCECRPGMFCSTSAVNSCARCFFHSVCPAGMIVKFPGTAQKNTVCEPASPGVSPACASPENCKEPSSGTIPQAKPTPVSPATSSASTMPVRGGTRLAQEAASKLTRAPDSPSSVGRPSSDPGLSPTQPCPEGSGDCRKQCEPDYYLDEAGRCTACVSCSRDDLVEKTPCAWNSSRTCECRPGMICATSATNSCARCVPYPICAAETVTKPQDMAEKDTTFEAPPLGTQPDCN
modifications: Construct 1-336 includes signal peptide 1-18, taken as cleaved on secretion; C-terminal MBP carrier and His tag left out; disulfide-bonded, likely glycosylated (Expi293)
Kd (BpT25-427): 0.57 nM
Kd (BpT405-6): 0.44 nM
Kd (BpT104-6): 0.59 nM
Kd (BpT427-6): 0.26 nM
Kd (BpT10-405): 0.63 nM
Kd (BpT107-427): 0.6 nM
Kd (BpT105-405): 0.67 nM
Kd (BpT104-405): 48 nM
Kd (BpT107-6): 0.37 nM
